According to the supplement of paper PMC10724198:
± gives the standard deviation of the averaged measurements.
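Note: PSI is a weighted mean of sequencing reads over stability bins, variants kept only with over 10 reads, mCherry proximal and sfGFP distal, peptide attached via GGGS linker.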

The sequences below were run on Saccharomyces cerevisiae (assay: protein stability index of tFT-peptide fusion (C-terminal peptide) (PSI (0-1 scale)); higher = more stable (slower turnover)). Conditions: genetic background: wild type; temperature: 30 C.
PPPPPPSPLGPP was tested, and the protein stability index was 0.674 ± 0.057. With PPPPPPTPSLRL the protein stability index was 0.72 ± 0.021. PPPPPPTRCHTP gave a protein stability index of 0.728 ± 0.056. With PPPPPPVPSRPL the protein stability index was 0.644 ± 0.046. PPPPPPVRSLPL was tested, and the protein stability index was 0.72 ± 0.088. For PPPPPRAAPPPP, the protein stability index was 0.668 ± 0.061. Work on PPPPPRHPSSPP yielded a protein stability index of 0.71068 ± 0.00014. PPPPPRPPLPHL showed a protein stability index of 0.686 ± 0.038. PPPPPSAISPTH gave a protein stability index of 0.732 ± 0.0036. PPPPPSFSFPPT showed a protein stability index of 0.706 ± 0.049. In the case of PPPPPSHPPPLS, the protein stability index is reported as 0.571 ± 0.0097. PPPPPTALLRPP showed a protein stability index of 0.731 ± 0.18. For PPPPRPAPAPLL, the protein stability index was 0.6948 ± 0.0067. PPPPRTLASPSY showed a protein stability index of 0.679 ± 0.026. PPPPSAPPLPLP showed a protein stability index of 0.61 ± 0.018. Work on PPPPSLPPPLPF yielded a protein stability index of 0.7844 ± 0.0011. PPPPSPALPTFP showed a protein stability index of 0.715 ± 0.049. PPPPSPFPLPSP gave a protein stability index of 0.6846 ± 0.0024. PPPPSPSPLPPS gave a protein stability index of 0.751 ± 0.015. Work on PPPPTPPYTPVP yielded a protein stability index of 0.623 ± 0.032. For PPPQGSQPSTLS, the protein stability index was 0.739 ± 0.051. Work on PPPQHLPPPSLS yielded a protein stability index of 0.676 ± 0.019. Sequence PPPRPICCALNS has a protein stability index of 0.655 ± 0.014. Work on PPPRPLQPRPRP yielded a protein stability index of 0.6502 ± 0.0019. PPPRPPALPPLP was tested, and the protein stability index was 0.69 ± 0.016. With PPPRPPPASPVP the protein stability index was 0.708 ± 0.076. PPPRPPSPLSLA was tested, and the protein stability index was 0.643 ± 0.1. For PPPRPTVPPGSR, the protein stability index was 0.668 ± 0.014. Sequence PPPRSPPFPSPL has a protein stability index of 0.689 ± 0.042. Sequence PPPRTLARSRLP has a protein stability index of 0.74 ± 0.016. For PPPRTYLPRPRL, the protein stability index was 0.764 ± 0.0085. Sequence PPPSDPPPSPPP has a protein stability index of 0.665 ± 0.016. For PPPSFPDWRYRW, the protein stability index was 0.755 ± 0.017. Sequence PPPSFPPFFPSF has a protein stability index of 0.731 ± 0.014. In the case of PPPSHPLSPPRP, the protein stability index is reported as 0.717 ± 0.24. For PPPSPAPLPAGP, the protein stability index was 0.682 ± 0.061. PPPSPPPPPSLP was tested, and the protein stability index was 0.669 ± 0.019. PPPSPRSAPAAS gave a protein stability index of 0.711 ± 0.1. PPPSPTSPPPPS gave a protein stability index of 0.69 ± 0.018. With PPPSSSLLPLPF the protein stability index was 0.817 ± 0.14. With PPPSTPLSPSSP the protein stability index was 0.72 ± 0.11. PPPTHPHLSSAL gave a protein stability index of 0.73 ± 0.04. With PPPTHRDPLPTP the protein stability index was 0.684 ± 0.048. In the case of PPPTPSSLLSTP, the protein stability index is reported as 0.701 ± 0.057. In the case of PPPTSSALPALV, the protein stability index is reported as 0.736 ± 0.037. With PPPVLSLPPLPV the protein stability index was 0.668 ± 0.028. For PPPVPLPPPRSL, the protein stability index was 0.736 ± 0.055. PPPVPPLGPSRA was tested, and the protein stability index was 0.693 ± 0.044. Sequence PPQGPVAPRKTP has a protein stability index of 0.708 ± 0.018. For PPQPTSPIRMPT, the protein stability index was 0.735 ± 0.03. For PPRLASFYIILG, the protein stability index was 0.571. With PPRLHPNTPPLL the protein stability index was 0.765 ± 0.08. PPRPPGFPPALF was tested, and the protein stability index was 0.697 ± 0.018. For PPRPPPHPAPLS, the protein stability index was 0.755 ± 0.019. Work on PPRPPRPPYPPP yielded a protein stability index of 0.609 ± 0.024. PPRPPSPPASRA showed a protein stability index of 0.77 ± 0.076. PPRSPPPTPPLF showed a protein stability index of 0.611 ± 0.01. Work on PPRVPCLVPKSR yielded a protein stability index of 0.715 ± 0.014. PPSAPPPLPPLL was tested, and the protein stability index was 0.7599 ± 0.0043. PPSAPPPSYHPP gave a protein stability index of 0.607 ± 0.045. PPSDRPTVPPPP showed a protein stability index of 0.709 ± 0.017. Work on PPSFDPSPPSSL yielded a protein stability index of 0.696 ± 0.042. With PPSGPTDTQEQG the protein stability index was 0.661 ± 0.035. PPSLEPFSPSPR was tested, and the protein stability index was 0.639 ± 0.013. PPSLLPFDPSLP showed a protein stability index of 0.708 ± 0.082. PPSLLRPYPLLS was tested, and the protein stability index was 0.66 ± 0.028. PPSLPPPPLSQP was tested, and the protein stability index was 0.68 ± 0.026. Sequence PPSLPRPPAFAP has a protein stability index of 0.689 ± 0.023. PPSPARFPPPSS gave a protein stability index of 0.632 ± 0.015. For PPSPHPPPSAPP, the protein stability index was 0.6411 ± 0.0028. For PPSPLPPPPPHP, the protein stability index was 0.651 ± 0.079. With PPSPPALPRFLL the protein stability index was 0.697 ± 0.025. With PPSPPAVISAGL the protein stability index was 0.716 ± 0.066. Sequence PPSPPCHTVTSA has a protein stability index of 0.679 ± 0.054. Sequence PPSPPHIHTYLT has a protein stability index of 0.6939 ± 0.0011. With PPSPPPPLPPPA the protein stability index was 0.6897 ± 0.0041. Sequence PPSPPPPPPRPP has a protein stability index of 0.64 ± 0.022. PPSPSPLPPRPL was tested, and the protein stability index was 0.717 ± 0.04. Work on PPSRLYFLSPRS yielded a protein stability index of 0.746 ± 0.039. PPSRPPPRLLFA was tested, and the protein stability index was 0.659 ± 0.048. PPSSPPLAPPFL gave a protein stability index of 0.709 ± 0.029. In the case of PPSSPPLQHPPP, the protein stability index is reported as 0.598 ± 0.038. In the case of PPSSPPPPDSDR, the protein stability index is reported as 0.6746 ± 0.0037. For PPSTNRDGRKRT, the protein stability index was 0.644 ± 0.026. In the case of PPSWLPLLPPPP, the protein stability index is reported as 0.688 ± 0.078. For PPSYYPPPYLAF, the protein stability index was 0.653 ± 0.034. Work on PPTLHVSPLCPL yielded a protein stability index of 0.607 ± 0.013. With PPTPPCTSSPAR the protein stability index was 0.739 ± 0.084. For PPTPRLPPPRLP, the protein stability index was 0.67 ± 0.045. PPTQSRLPLPLL gave a protein stability index of 0.674 ± 0.033. Work on PPVISAPIPLAP yielded a protein stability index of 0.688 ± 0.052. PPVLRTPPAPLI showed a protein stability index of 0.681 ± 0.058. For PPVPPPSPPRLL, the protein stability index was 0.673 ± 0.03. With PPVTAPPPPLRS the protein stability index was 0.692 ± 0.014. In the case of PQAQCTALLTQR, the protein stability index is reported as 0.659 ± 0.085. With PQESRAWTLSSA the protein stability index was 0.713 ± 0.05. With PQPRDSLFSLGN the protein stability index was 0.691 ± 0.032. With PQRRPPASTRSD the protein stability index was 0.682 ± 0.018. Work on PQRTTPPRRHTA yielded a protein stability index of 0.717 ± 0.032. PQTPPSTLLLPP gave a protein stability index of 0.61 ± 0.1. With PRALSMGGPRYQ the protein stability index was 0.5929 ± 0.0021. Work on PRAPPPSPPPRP yielded a protein stability index of 0.651 ± 0.04. PRCRSLPPLRVL gave a protein stability index of 0.6975 ± 0.0037. Work on PRDTTIPLVLGF yielded a protein stability index of 0.63756 ± 0.00037. Work on PRFFTRYRCYSA yielded a protein stability index of 0.793 ± 0.064. In the case of PRFGADVQKLVG, the protein stability index is reported as 0.653 ± 0.045. PRFPLPPHPSPR gave a protein stability index of 0.704 ± 0.03. PRGKVLPFAFAC showed a protein stability index of 0.554 ± 0.019. Sequence PRGLRIHSRLRG has a protein stability index of 0.678 ± 0.01. PRGPPGILSRPP was tested, and the protein stability index was 0.6736 ± 0.00089. Work on PRGSSRSTFFLF yielded a protein stability index of 0.603 ± 0.046. For PRHYSPPPVPSR, the protein stability index was 0.686 ± 0.026. For PRIWDLVDIGTL, the protein stability index was 0.735 ± 0.022. PRLCLVAGRCRS was tested, and the protein stability index was 0.614 ± 0.04. PRLFLSICPFSF was tested, and the protein stability index was 0.682 ± 0.051. In the case of PRLPHPPPFDSL, the protein stability index is reported as 0.676 ± 0.016. Work on PRLPHPPPPLPL yielded a protein stability index of 0.669 ± 0.079. With PRLPPRSPRPPA the protein stability index was 0.7369 ± 0.0048. For PRLVFSVSSLGL, the protein stability index was 0.7 ± 0.038. PRLVTLALPRTR gave a protein stability index of 0.716 ± 0.015. For PRPALRPLPVYP, the protein stability index was 0.612 ± 0.068. Work on PRPAPPPPSTPP yielded a protein stability index of 0.6411 ± 0.0051. PRPCSPPPPDPC was tested, and the protein stability index was 0.703 ± 0.022. Work on PRPFAPPPPPHD yielded a protein stability index of 0.808 ± 0.094. With PRPHPPPLPCPP the protein stability index was 0.714 ± 0.04. Sequence PRPLASRITSPA has a protein stability index of 0.692 ± 0.036. PRPLPPPLPCPP gave a protein stability index of 0.682 ± 0.015. PRPLPPPPPLST was tested, and the protein stability index was 0.654 ± 0.061. PRPLSPLPPSAL was tested, and the protein stability index was 0.66 ± 0.05. Work on PRPPAGSFPSSL yielded a protein stability index of 0.7 ± 0.053. In the case of PRPPPPLPPFPP, the protein stability index is reported as 0.6602 ± 0.0011. For PRPPPPPPPLPP, the protein stability index was 0.692 ± 0.03. For PRPPPPRPPFST, the protein stability index was 0.717 ± 0.01. For PRPPPPSPIPPL, the protein stability index was 0.7265 ± 0.0018. For PRPPSPPADPAP, the protein stability index was 0.744 ± 0.013. Work on PRPPYPRPPPPP yielded a protein stability index of 0.725 ± 0.074. For PRPSFRPPPPLP, the protein stability index was 0.722 ± 0.011. Sequence PRPSPPPVSPRP has a protein stability index of 0.74 ± 0.043. PRRPLSTPTPLV was tested, and the protein stability index was 0.666 ± 0.049. PRRPPSSLWPYP was tested, and the protein stability index was 0.669 ± 0.044. PRSAPPRRPPTP showed a protein stability index of 0.753 ± 0.075. PRSPPPLPPSSL showed a protein stability index of 0.705 ± 0.029. With PRSPPPPLLSPP the protein stability index was 0.692 ± 0.037. With PRSPPSPPPPPS the protein stability index was 0.641 ± 0.1. PRSPSLPPLFSP gave a protein stability index of 0.718 ± 0.072. In the case of PRSSHHPLPSPP, the protein stability index is reported as 0.676 ± 0.071. With PRSTLLPRSSSC the protein stability index was 0.654 ± 0.028. For PRSVLGFKMGRF, the protein stability index was 0.715 ± 0.065. With PRTPAPAPTPRP the protein stability index was 0.682 ± 0.017. Work on PRTRLPPQLRLP yielded a protein stability index of 0.694 ± 0.02. For PRYKQSSFAFKK, the protein stability index was 0.669 ± 0.036. For PRYSLPTLLSSR, the protein stability index was 0.678 ± 0.051. Sequence PRYVQPQCLAQR has a protein stability index of 0.6721 ± 0.0051. For PSAPPLSHPAPW, the protein stability index was 0.675 ± 0.047. PSAPRHLIPPPI showed a protein stability index of 0.715 ± 0.07. In the case of PSAPTNPHARLA, the protein stability index is reported as 0.689 ± 0.051. PSEAPEAPLPRP gave a protein stability index of 0.731 ± 0.082. PSELGAGNVMGG showed a protein stability index of 0.699 ± 0.027. PSFPSSSCTSPI was tested, and the protein stability index was 0.693 ± 0.1. In the case of PSGICVLSPRYG, the protein stability index is reported as 0.7 ± 0.016.
